Source: US20190016796A1 (UNIVERSITAT ZURICH, published 2019)

Tests used:
murine interleukin-2 = molecular target: T1, murine interleukin-2 (mouse, UniProt P04351 21-169); assay: SPR, NARA1 amine-coupled to a GLM chip, mouse IL-2 injected at 10 to 0.041 nM
T1 construct: also called mouse IL-2; mIL-2
T1 sequence (looked up): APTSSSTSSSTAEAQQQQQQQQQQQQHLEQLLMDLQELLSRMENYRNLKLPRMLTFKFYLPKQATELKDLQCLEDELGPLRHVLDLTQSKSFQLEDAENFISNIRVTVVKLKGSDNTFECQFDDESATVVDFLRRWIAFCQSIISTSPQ

human interleukin-2 = molecular target: T2, human interleukin-2 (human, UniProt P60568 21-153); assay: SPR, antibody amine-coupled to GLM chip, hIL-2 as analyte (100 nM, three-fold dilutions)
T2 construct: Teceleukin is named only for the in vivo treatments; also called hIL-2; human IL-2
Description: For this experiment an amine coupling GLM chip was used. The activation of the carboxylic acid groups in the chip was done using a mix of 1-ethyl-3-3-dimethylaminopropyl carbodiimide hydrochloride (EDC at 0.2 M) and sulfo N-hydroxysulfosuccinimides (s_NHS at 0.05M) at 30 μl/min for 420 seconds (s). […] Deactivation was followed adding ethanolamine HCl at 30 μl/min for 300 s. Finally human IL-2 was added at different concentrations (starting from 100 nM and followed by three-fold dilutions) at 100 μl/min, 600 s association, and 240 s dissociation.
In order to characterize the binding properties of the anti-human IL-2 mAbs the binding to human interleukin-2 was tested with surface plasmon resonance binding assays.

T2 sequence (P60568 21-153 limits assumed): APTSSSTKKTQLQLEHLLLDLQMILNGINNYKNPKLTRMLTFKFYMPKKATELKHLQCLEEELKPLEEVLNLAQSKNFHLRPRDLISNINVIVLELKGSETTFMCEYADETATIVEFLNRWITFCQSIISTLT

binding result (murine interleukin-2): no binding (tested: 10 nM)
Kd (human interleukin-2): 1.2 nM
koff (human interleukin-2): 2.08e-05 s⁻¹
B1: monoclonal antibody NARA1 (antibody, mouse IgG2a, kappa, V domains shown)
VH: QVQLQQSGAELVRPGTSVKVSCKASGYAFTNYLIEWVKQRPGQGLEWIGVINPGSGGTNYNEKFKGKATLTADKSSSTAYMQLSSLTSDDSAVYFCARWRGDGYYAYFDVWGAGTTVTVSS
VL: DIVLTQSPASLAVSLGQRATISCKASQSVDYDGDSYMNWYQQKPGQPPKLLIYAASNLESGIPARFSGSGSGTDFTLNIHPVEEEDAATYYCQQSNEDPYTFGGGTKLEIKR
notes: also called hIL-2 mAb
